{"source": "patent US20220396819A1", "about": "“METHOD FOR PRODUCING PEPTIDE HAVING PHYSIOLOGICAL ACTIVITY, AND PEPTIDE COMPRISING SHORT LINKER” (priority 2019, published 2022)", "molecules": {"B1": {"name": "rhTPO: recombinant human TPO (rhTPO, Peprotech) (protein)", "chain": "SPAPPACDLRVLSKLLRDSHVLHSRLSQCPEVHPLPTPVLLPAVDFSLGEWKTQMEETKAQDILGAVTLLLEGVMAARGQLGPTCLSSLLGQLSGQVRLLLGALQSLLGTQLPPQGRTTAHKDPNAIFLSFQHLLRGKVRFLMLVGGSTLCVRRAPPTTAVPSRTSLVLTLNEL"}}, "key": {"HEL cells [1]": {"test_system": "HEL cells", "experiment": "Signal characteristics, Proteome Profiler Human Phospho-Kinase Array Kit, HEL cells", "format": "cell-based", "details": "100 ng/mL rhTPO or culture supernatant 1/100 to 1/1000, 20 minutes, FIG. 43", "protocol": "The signal characteristics of the TPO-PAS dimer peptide were evaluated using Proteome Profiler Human Phospho-Kinase Array Kit (R&D Systems).\n(§1) 1,000,000 HEL cells were cultured in RPMI 1640 medium without FBS (Thermo Fisher Scientific) for 24 hours and starved. The cells were stimulated for 20 minutes in RPMI 1640 medium supplemented with 100 ng/mL recombinant human TPO (rhTPO, Peprotech) or a culture supernatant containing TPO2-PAS8 at a dilution of 1/100 to 1/1000. As a negative control, PBS was added, and stimulation was performed for 20 minutes (Mock group). After removing the medium and washing the cells once with PBS, the cells were lysed by adding 200 μL of Lysis buffer 17 (R&D Systems) supplemented with Protease inhibitor cocktail (Nacalai Tesque). The lysate solution was centrifuged at 14,000 G for 5 minutes to obtain the supernatant as lysate.\nThe lysate was analyzed using Proteome Profiler Human Phospho-Kinase Array Kit. Amersham Imager 600 (GE Healthcare) was used to detect chemiluminescence. The chemiluminescence intensity of the dots was quantified using ImageJ. […] The signal pathway stimulated by rhTPO is mainly the JAK2/Stat3,5 pathway, and all of the proteins with increased phosphorylation levels are included in the pathway."}, "HEL cells [2]": {"test_system": "HEL cells", "experiment": "Thrombopoietin-like activity, CREB phosphorylation levels in HEL cells (Phospho-CREB (Ser133) ELISA)", "format": "cell-based, human", "details": "dimer peptide 20-40 ng/mL or rhTPO 100 ng/mL, 20 minutes, Mock = PBS, FIG. 90", "protocol": "as §1, with “The thrombopoietin-like activity of the TPO-PAS dimer peptide variant was evaluated by quantification of CREB phosphorylation levels in HEL cells, a human leukemia-derived blood cell line. 200,000” for “1,000,000”, “each dimer peptide of TPO2-PAS8, TPO2-PAS49, TPO2-PAS100, or TPO2-GS8 diluted to” for “TPO2-PAS8 at”, “final concentration” for “dilution”, “20-40 ng/mL.” for “1/100 to 1/1000.”, “100” for “200”, “lysate. Note that TPO2-PAS8 was obtained according to the method described in Example 23.” for “lysate.”\nPhospho-CREB (Ser133) and Total CREB ELISA kit (RayBio) were used to quantify phosphorylated CREB (pCREB) levels in the lysates. […] Phosphorylation levels were quantified by adding 50 μL of Stop solution and measuring the absorbance at a wavelength of 450 nm on a microplate."}}, "data": [{"molecule": "B1", "values": [{"measurement": "phosphorylation levels of signal proteins compared with PBS (Mock group)", "setting": "HEL cells [1]", "value": "increased in phosphorylation levels of Erk, CREB, Stat3, Stat5a, and Stat5b"}, {"measurement": "pCREB level (relative CREB phosphorylation level)", "setting": "HEL cells [2]", "value": 143, "unit": "%"}]}]}
